Positions of bridges follow the written chain, without caps; N, C: chain ends. Non-standard residues stand in square brackets, D forms with d. Residues, ends and D or L forms follow the SMILES beside them. *: point of attachment. X1 = CCN(CC)c1ccc2c(-c3ccc(S(=O)(=O)*)cc3S(=O)(=O)[O-])c3ccc(=[N+](CC)CC)cc-3oc2c1; Biotin = O=C1N[C@H]2[C@H](CS[C@H]2CCCCC(=O)*)N1; Dopa = N[C@@H](Cc1ccc(O)c(O)c1)C(=O)O; Dap = NC[C@H](N)C(=O)O
Legend:
[1] = system: human endothelial cells derived from hematopoietic stem cells; assay: Transport across the BBB, in vitro human cell assay (co-culture, transwell); type: in vitro ADME; settings: human cell model, 37 °C, 25 nM Examples 22 and 23, 30 nM Example 24, 5 nM Example 25; for Transport (%) (2h): Ringer-HEPES pH 7.4, 200 µM peptides
Method: (§1) Due to the great interest to know whether the cargo-BBB shuttle conjugates would be transported across human brain endothelial cells, some of the most relevant cargoes for therapy and diagnosis were assayed in a novel human-based BBB cell model. In this case, the co-culture method used was described by Cecchelli et al. (Cecchelli et al. PloS One. 2014. vol9. pp. e99733) and consists in seeding bovine pericytes in the bottom of a 12-well plate and human endothelial cells derived from hematopoietic stem cells on a transwell filter.
(§2) The compound of interest was disolved or buffer-exhanged and diluted to the desired concentration.
(§3) Cetuximab and cetuximab conjugates were radiolabelled to be assayed in the cell model. Pierce^(R) iodination beads were used following the instructions provided by the manufacturer.
(§4) The apparent permeability was calculated using the same equation as for the bovine cell model.

[2] = system: bovine brain endothelial cells; assay: Transport across the BBB, in vitro bovine cell assay (co-culture, transwell); settings: bovine cell model; for detection of the cargo alone in the acceptor compartments by MALDI-TOF MS: after the 2 h assay, cargo without shuttle; for Transport (%) (2h) / Papp (x 10^6) cm/s: 37 °C, Ringer-HEPES pH 7.4, 200 µM (Example 21: 1.75 µM), 2 h; for Papp (x 10^6) cm/s: triplicate
From the text: (§5) The evaluation method chosen to test the compounds of formula (I) and (II) of the invention was a cell-based assay consisting of a co-culture of brain endothelial cells and astrocytes, which allows to evaluate or to predict the transport of compounds through the BBB. The co-culture method used was described by Gaillard and de Boer in 2008 (Gaillard, PJ et al. "2B-Trans technology: targeted drug delivery across the blood-brain barrier" Methods Mol Biol 2008, vol. 437 pp. 161-175) and consists in seeding of rat astrocytes in a side of a polycarbonate filter (transwell) and bovine brain endothelial cells on the other side of the filter. Under these conditions endothelial cells are able to reach the confluence mimicking the BBB. […] Is commonly used model for permeation studies and toxicity of compounds across the BBB.
(§6) The co-culture assay was used to determine the capacity of the constructs cargo-shuttle to cross the BBB. The apparent permeability of the compounds was measured in triplicate at a concentration of 200 µ M for Examples 1, 2, 3, 5, 10, 13, 15, 16, 17 and 19 and at a concentration of 1.75 µM for Example 21. All the assays were performed with transendothelial electrical resistance values equal or higher than 100 Ω · cm^2 and were carried out in the presence of lucifer yellow to assess the integrity of the cell membrane during the test. The permeability tests were performed in Ringer-HEPES buffer at pH 7.4. The compound of interest was dissolved in the buffer to the desired concentration.
(§7) Once the endothelial cells were confluent on the filters (transwells) these were washed with Ringer-HEPES buffer. The acceptor well was filled with 800 µ L of Ringer-HEPES buffer and the donor well with 200 µL of the solution of the compound to be studied. The system was incubated at 37 °C and 5% CO2 for 2 h. After that time the content of the acceptor and donor compartments were analyzed by HPLC-UV, direct ELISA or fluorescence (depending on cargo anchored to the shuttle). […] The apparent permeability was calculated using the following equation: Papp = (dQ/dt) * (1/A) * (1/CO) (cm/s), where (dQ/dt) is the amount of compound present in the compartment acceptor function of time (nmol/s). A is the area of the filter(cm2) and CO is the initial concentration of the compound applied in the donor compartment (nmol/mL).

[3] = as above; settings: pH 7.4; for Papp at 2 h: bovine
From the text: as §5, §6, §7

[4] = Stability of the shuttles in human serum; type: in vitro ADME; settings: HBSS, 37 °C, 90% human serum
Method: Regarding to the stability study in human serum of the BBB-shuttle (examples 1, 2, 3 and 5), the peptides were incubated at a concentration of 400 µM in buffer HBSS at 37 °C in the presence of 90% human serum. At a range of times, 100 µL aliquots were collected to which methanol was added in order to precipitate the serum proteins. Samples were centrifuged, filtered and analyzed by HPLC-UV and MALDI-TOF MS to determine the degree of degradation of the BBB-shuttle. […] The half life of the derivative bearing a single disulfide bond was 3 h (examples 2), whereas that of the linear version was no more than 8 min.

[5] = Transport across the BBB, in vitro human cell assay (co-culture, transwell); type: in vitro ADME; settings: human cell model, 37 °C, Ringer-HEPES pH 7.4, 200 µM peptides, 25 nM Examples 22 and 23, 30 nM Example 24, 5 nM Example 25, read-out: Papp (x 10^6)
Method: as §1, §2, §3, §4

## Quantum dot-PEG-NH-V1-Dap-Lys-Ala-Pro-Glu-Thr-Ala-Leu-Asp-NH2 [Example 24]
[1]
  Transport (%) (2h): 0.23±0.09%

## N[C@@H](Cc1ccc(O)c(O)c1)C(=O)O [L-dopa]
[2]
  detection of the cargo alone in the acceptor compartments by MALDI-TOF MS: not detected

## 5(6)-Carboxyfluorescein-Cys-Asn-Cys-Lys-Ala-Pro-Glu-Thr-Ala-Leu-Cys-Ala-Ala-Ala-Cys-His-NH2 ({5(6)‑carboxyfluorescein}-CNCKAPETALCAAACH-NH2; disulfide 1-11, 3-15) [Example 10]
[2]
  Transport (%) (2h): 3.7±1.8%
  Papp (x 10^6) cm/s: 3.1±1.5 (x 10^6) cm/s

## CCN(CC)c1ccc2c(-c3ccc(S(=O)(=O)NCC(=O)N[C@H]4CSSC[C@@H]5NC(=O)[C@H](CC(C)C)NC(=O)[C@H](C)NC(=O)[C@H]([C@@H](C)O)NC(=O)[C@H](CCC(=O)O)NC(=O)[C@@H]6CCCN6C(=O)[C@H](C)NC(=O)[C@H](CCCCN)NC(=O)[C@H](CSSC[C@@H](C(=O)N[C@@H](Cc6c[nH]cn6)C(N)=O)NC(=O)[C@H](C)NC(=O)[C@H](C)NC(=O)[C@H](C)NC5=O)NC(=O)[C@H](CC(N)=O)NC4=O)cc3S(=O)(=O)[O-])c3ccc(=[N+](CC)CC)cc-3oc2c1 [Example 13, sulforhodamine b-Gly-Cys-Asn-Cys-Lys-Ala-Pro-Glu-Thr-Ala-Leu-Cys-Ala-Ala-Ala-Cys-His-NH2] (X1-GCNCKAPETALCAAACH-NH2; disulfide 2-12, 4-16)
[3]
  Papp: 2 ± 0.3 ×10⁻⁶ cm/s
[2]
  Transport (%) (2h): 2.4±0.4%

## Gold nanoparticle-Cys-Dap-Lys-Ala-Pro-Glu-Thr-Ala-Leu-Asp-NH2 [Example 25]
[1]
  Transport (%) (2h): 0.034%

## H-Cys-Lys-Ala-Pro-Glu-Thr-Ala-Leu-Cys-NH2 (H-CKAPETALC-NH2; cysteine pairing not given here) [Example 4]
[1]
  Transport (%) (2h): 9.9±0.6%
[1]; 2 h, Ringer-HEPES pH 7.4, 200 µM peptides
  Papp (x 10^6) cm/s: 6.1±0.4 (x 10^6) cm/s

## CC(C)C[C@@H]1NC(=O)[C@H](C)NC(=O)[C@H]([C@@H](C)O)NC(=O)[C@H](CCC(=O)O)NC(=O)[C@@H]2CCCN2C(=O)[C@H](C)NC(=O)[C@H](CCCCN)NC(=O)[C@@H]2CSSC[C@@H](C(=O)N[C@@H](Cc3c[nH]cn3)C(N)=O)NC(=O)[C@H](C)NC(=O)[C@H](C)NC(=O)[C@H](C)NC(=O)[C@H](CSSC[C@H](NC(=O)[C@@H](N)Cc3ccc(O)c(O)c3)C(=O)N[C@@H](CC(N)=O)C(=O)N2)NC1=O [Example 16, L-Dopa-Cys-Asn-Cys-Lys-Ala-Pro-Glu-Thr-Ala-Leu-Cys-Ala-Ala-Ala-Cys-His-NH2] (H-[Dopa]CNCKAPETALCAAACH-NH2; disulfide 2-12, 4-16)
[3]
  Papp at 2 h: 2.6 ± 0.3 ×10⁻⁶ cm/s
[2]
  Transport (%) (2h): 3.1±0.3%

## H-KAPETAL-NH2 [Example 5, H-Lys-Ala-Pro-Glu-Thr-Ala-Leu-NH2]
[4]
  half-life at 400 µM: ≤ 8 min
[3]
  Papp at 2 h: 2 ± 0.6 ×10⁻⁶ cm/s
[2]
  Transport (%) (2h): 2.3±0.8%

## Lysozyme-V3-Cys-Asn-Cys-Lys-Ala-Pro-Glu-Thr-Ala-Leu-Cys-Ala-Ala-Ala-Cys-His-NH2 [Example 21]
[2]
  Transport (%) (2h): 0.08±0.03%
  Papp (x 10^6) cm/s: 0.07±0.03 (x 10^6) cm/s

## CC(C)C[C@@H]1NC(=O)[C@H](C)NC(=O)[C@H]([C@@H](C)O)NC(=O)[C@H](CCC(=O)O)NC(=O)[C@@H]2CCCN2C(=O)[C@H](C)NC(=O)[C@H](CCCCN)NC(=O)[C@@H](NC(=O)[C@@H](N)Cc2ccc(O)c(O)c2)CNC(=O)C[C@@H](C(N)=O)NC1=O [Example 18, L-Dopa-Dap-Lys-Ala-Pro-Glu-Thr-Ala-Leu-Asp-NH2] (H-[Dopa][Dap]KAPETALD-NH2; lactam 2-10)
[1]
  Transport (%) (2h): 6.6±2.1%
[5]
  Papp at 2 h: 4 ± 1.3 ×10⁻⁶ cm/s

## O=C(O)CCCC[C@@H]1SC[C@@H]2NC(=O)N[C@@H]21 [biotin]
[2]
  detection of the cargo alone in the acceptor compartments by MALDI-TOF MS: not detected

## CC(C)C[C@@H]1NC(=O)[C@H](C)NC(=O)[C@H]([C@@H](C)O)NC(=O)[C@H](CCC(=O)O)NC(=O)[C@@H]2CCCN2C(=O)[C@H](C)NC(=O)[C@H](CCCCN)NC(=O)[C@@H](NC(=O)[C@@H](N)Cc2ccc(O)c(O)c2)CSSC[C@@H](C(N)=O)NC1=O [Example 17, L-Dopa-Cys-Lys-Ala-Pro-Glu-Thr-Ala-Leu-Cys-NH2] (H-[Dopa]CKAPETALC-NH2; disulfide 2-10)
[3]
  Papp at 2 h: 2.4 ×10⁻⁶ cm/s
[2]
  Transport (%) (2h): 2.9%

## 5(6)-carboxyfluorescein
[2]
  detection of the cargo alone in the acceptor compartments by MALDI-TOF MS: not detected

## CC(C)C[C@@H]1NC(=O)[C@H](C)NC(=O)[C@H]([C@@H](C)O)NC(=O)[C@H](CCC(=O)O)NC(=O)[C@@H]2CCCN2C(=O)[C@H](C)NC(=O)[C@H](CCCCN)NC(=O)[C@@H](N)CNC(=O)C[C@@H](C(N)=O)NC1=O [Example 3, H-Dap-Lys-Ala-Pro-Glu-Thr-Ala-Leu-Asp-NH2] (H-[Dap]KAPETALD-NH2; lactam 1-9)
[4]; 400 µM, 24 h
  degradation in human serum: No degradation
[1]
  Transport (%) (2h): 10.9±1.1%
[3]
  Papp at 2 h: 5.1 ± 0.6 ×10⁻⁶ cm/s
[2]
  Transport (%) (2h): 6.0±0.7%

## CC(C)C[C@@H]1NC(=O)[C@H](C)NC(=O)[C@H]([C@@H](C)O)NC(=O)[C@H](CCC(=O)O)NC(=O)[C@@H]2CCCN2C(=O)[C@H](C)NC(=O)[C@H](CCCCN)NC(=O)[C@@H]2CSSC[C@@H](C(=O)N[C@@H](Cc3c[nH]cn3)C(N)=O)NC(=O)[C@H](C)NC(=O)[C@H](C)NC(=O)[C@H](C)NC(=O)[C@H](CSSC[C@H](NC(=O)CNC(=O)[C@H](CC(=O)O)NC(=O)[C@H](Cc3ccccc3)NC(=O)[C@H](Cc3ccccc3)NC(=O)[C@@H]3CCCN3C(=O)[C@@H](N)CC(C)C)C(=O)N[C@@H](CC(N)=O)C(=O)N2)NC1=O [Example 19] (H-LPFFDGCNCKAPETALCAAACH-NH2; disulfide 7-17, 9-21)
[3]
  Papp at 2 h: 1.5 ± 0.4 ×10⁻⁶ cm/s
[2]
  Transport (%) (2h): 1.8±0.5%

## Biotin-CNCKAPETALCAAACH-NH2 (cysteine pairing not given here) [Example 15]
[2]
  Transport (%) (2h): 1.9±0.8%

## H-Cys-Lys-Ala-Pro-Glu-Thr-Ala-Leu-Cys-NH2 (H-CKAPETALC-NH2; cysteine pairing not given here) [Example 2]
[4]; 400 µM
  half life in human serum: 3 h
[2]
  Transport (%) (2h): 3.1±1.0%

## H-LPFFD-NH2 [H-Leu-Pro-Phe-Phe-Asp-NH2, reference compound]
[2]
  detection of the cargo alone in the acceptor compartments by MALDI-TOF MS: not detected

## CCN(CC)c1ccc2c(-c3ccc(S(=O)(=O)O)cc3S(=O)(=O)[O-])c3ccc(=[N+](CC)CC)cc-3oc2c1 [sulforhodamine b]
[2]
  detection of the cargo alone in the acceptor compartments by MALDI-TOF MS: not detected

— patent publication EP3016671B1, “ACTIVELY T[…] PROTEASE-RESISTANT PEPTIDES AS BBB SHUTTLES AND SHUTTLE-CARGO CONSTRUCTS” (Universitat de Barcelona, priority 2013, dated 2015)
